Key:
[1] = system: CCCCC/C=C\C\C=C/C=C/C=C/[C@@H](SC[C@H](NC(=O)CC[C@H](N)C(=O)O)C(=O)NCC(=O)O)[C@@H](O)CCCC(=O)O; assay: purified protein; settings: substrate binding site
[2] = system: CSC[C@H](NC(=O)CC[C@H](N)C(=O)O)C(=O)NCC(=O)O; assay: glutamate release assay, Km of hydrolysis; assay type: biochemical, Homo sapiens
[3] = system: N[C@@H](CCC(=O)N[C@@H](CSCc1ccc([N+](=O)[O-])cc1)C(=O)NCC(=O)O)C(=O)O; assay: glutamate release assay, Km of hydrolysis; assay type: biochemical, Homo sapiens

## gamma-glutamyl transpeptidase (GGT1) (Homo sapiens)
[1]
  Km: 10.8 ± 0.1 µM
  kcat: 88.3 s⁻¹
  kcat/Km: 8.17e+06 M⁻¹ s⁻¹
[2]
  Km: 9.90 ± 0.07 µM
  kcat: 95 ± 3.33 s⁻¹
  kcat/Km: 9.5e+06 ± 333000 M⁻¹ s⁻¹
[3]
  Km: 13.10 ± 0.05 µM
  kcat: 103 ± 6.67 s⁻¹
  kcat/Km: 7.83e+06 ± 500000 M⁻¹ s⁻¹

From article PMC3099546
